Data on 11 molecules can be found in patent US20210106652A1, “Immunogenic Compounds For Treatment Of Fibrosis, Autoimmune Diseases And Inflammation” (ENTEROME S.A., priority 2018, published 2021).

In one test the target is T1, HLA-A*0201 (Homo sapiens, UniProt P04439, D140Y/D185E/D98H/E176V/E277Q/G131W/G231S/I119V/I121R/I166T/I218V/L300P/L318F/N151K/N90K/P208A/P217A/Q86G/Q94H/R138H/R169H/T345S).
T1 construct: human tumoral cell T2 which expresses the HLA-A*0201 molecule; endogenous in cells; host or cells: T2 cells (human, TAP1/2 negative)
Nature of the test: Affinity of the peptide to HLA-A*0201 on T2 cell line (FACS, anti-HLA-A2). The format is binding. As to conditions: for binding to HLA-A*0201 (in words): T2 cells; for In vitro binding affinity: Example 5, relative affinity = concentration of peptide inducing 20% of HLA-A*0201 expression / that of reference peptide HIV pol 589-597, lower = higher affinity; for Concentration of peptide that induces 20% of HLA-A2 expression: Example 7. From the text:
The experimental protocol is similar to the one that was validated for peptides presented by the HLA-A*0201 (Tourdot et al., A general strategy to enhance immunogenicity of low-affinity HLA-A2.1-associated peptides: implication in the identification of cryptic tumor epitopes. Eur J Immunol. 2000 December; 30(12):3411-21). Affinity measurement of the peptides is achieved with the human tumoral cell T2 which expresses the HLA-A*0201 molecule, but which is TAP1/2 negative and incapable of presenting endogenous peptides.
T2 cells (2.10^5 cells per well) are incubated with decreasing concentrations of peptides from 100 μM to 0.1 μM in a AIMV medium supplemented with 100 ng/μl of human β2m at 37° C. for 16 hours. Cells are then washed two times and marked with the anti-HLA-A2 antibody coupled to PE (clone BB7.2, BD Pharmagen).
The analysis is achieved by FACS (Guava Easy Cyte).
For each peptide concentration, the geometric mean of the labelling associated with the peptide of interest is substracted from background noise and reported as a percentage of the geometric mean of the […] labelling obtained for the reference peptide HIV pol 589-597 at a concentration of 100 μM. The relative affinity is then determined as follows:
relative affinity=concentration of each peptide inducing 20% of expression of HLA-A*0201/concentration of the reference peptide inducing 20% of expression of HLA-A*0201.
The experimental protocol was similar to the one that was validated for peptides presented by the HLA-A*0201 (Tourdot et al., A general strategy to enhance immunogenicity of low-affinity HLA-A2.1-associated peptides: implication in the identification of cryptic tumor epitopes. Eur J Immunol. 2000 December; 30(12):3411-21).
T2 cells (2.10^5 cells per well) were incubated with decreasing concentrations of peptides from 100 μM to 0.1 μM in a AIMV medium supplemented with 100 ng/μl of human β2m at 37° C. for 16 hours. Cells were then washed two times and marked with the anti-HLA-A2 antibody coupled to PE (clone BB7.2, BD Pharmagen).
The analysis was achieved by FACS (Guava Easy Cyte).
For each peptide concentration, the geometric mean of the labelling associated with the peptide of interest was subtracted from background noise and reported as a percentage of the geometric mean of the […] labelling obtained for the reference peptide HIV pol 589-597 at a concentration of 100 μM. The relative affinity is then determined as follows:
The experimental protocol, materials and methods correspond to those outlined in Example 3, with the only difference that the above mentioned (poly)peptides were used.
The experimental protocol, materials and methods correspond to those outlined in Example 2, with the only difference that the above mentioned (poly)peptides were used.

The test system of another test is HHD DR3 mice. Nature of the test: IFN-γ ELISpot immunogenicity and cross-reactivity in HHD DR3 (HLA-A2 transgenic) mice. It counts as in vivo, mouse. As to conditions: 100 μg s.c. d0, d14 with helper peptide (DR3) and IFA; challenge with either IL13RA2-L or IL13RA2-H. Here is the method: The (poly)peptide of the present invention IL13RA2-L (SEQ ID NO: 279) and the corresponding human reference peptide IL13RA2-H (SEQ ID NO: 263) were tested in distinct groups of male and female HHD DR3 mice expressing human HLA-A2 and HLA-DR3 MHC and lacking the murine H-2 class I and class II MHCs. Groups of 5 mice (male and female) were subcutaneously injected on days 0 and 14 with 100 μg of IL13RA2-L (SEQ ID NO: 279) or IL13RA2-H (SEQ ID NO: 263), 150 μg of helper peptide (DR3) and IFA. On day 21, the mice were euthanized and splenocytes were prepared and stimulated in vitro with IL13RA2-L or the human corresponding peptide IL13RA2-H to assess their capacity to secrete IFN- as assessed by ELISpot. Concanavalin A (ConA) was used as a positive control.

The target in test [1] is T2, HLA-A*0201 molecule expressed on human T2 cells (human).
T2 construct: MHC class I molecule on T2 cells; also called HLA-A2
Nature of the test: T2 cell assay; relative affinity against reference peptide HIV pol 589-597.

Turning to CLYTFLIST [IL13RA2-H2], the “binding to HLA-A*0201 (in words)” value in the test with HLA-A*0201 is listed as “do not bind to or show much lower affinity”.

Consider “1I9A: tryptophan at position 1 of SEQ ID No 263 substituted by isoleucine and isoleucine at position 9 substituted by alanine (ILPFGFILA)”, for which, in the test with HLA-A*0201, the “In vitro binding affinity” value was found to be 2.22. Same read-out and setting: as for “1F9M: tryptophan at position 1 of SEQ ID No 263 substituted by phenylalanine and isoleucine at position 9 substituted by methionine (FLPFGFILM)”, the figure is 2.62.

Turning to FLPFGFILPV [IL13RA2-L], the “Concentration of peptide that induces 20% of HLA-A2 expression” value with HLA-A*0201 came out at 3.2 µM. For the same molecule, the “immune response (IFN-γ ELISpot, spot forming cells) after immunisation” value with HHD DR3 mice is “strongly immunogenic”. Regarding FLPFGFILV [IL13RA2-B], in the test with HLA-A*0201, the “Concentration of peptide that induces 20% of HLA-A2 expression” value is 2.9 µM and the “binding to HLA-A*0201 (in words)” value was “bind strongly”. Turning to YLYTFLIST [IL13RA2-B2], the “binding to HLA-A*0201 (in words)” value with HLA-A*0201 is “bind strongly”.

Take WLPFGFILI [IL13RA2-H]: the “binding to HLA-A*0201 (in words)” value with HLA-A*0201 was “do not bind to or show much lower affinity”. Also, the “immune response (IFN-γ ELISpot, spot forming cells) after immunisation” value in the test on HHD DR3 mice is recorded as “does not induce an immune response”. In the case of ALPFGFILV [1A9V], in the test with HLA-A*0201, the “In vitro binding affinity” value is 3.06 and the “Concentration of peptide that induces 20% of HLA-A2 expression” value was determined as 36.5 µM.

B1: IL13RA2-B (FLPFGFILV, SEQ ID NO: 31) (peptide)
peptide: FLPFGFILV
notes: also called IL13RA2-B pAg; candidate peptide
Consider B1, for which the “In vitro binding affinity” value in test [1] is 0.3.

B2: peptide 1A9V (SEQ ID NO: 263 with tryptophan 1 to alanine and isoleucine 9 to valine) (peptide)
peptide: ALPFGFILV
notes: Analogue described by Eguchi et al. 2006; also called comparative peptide 1A9V
B2: the “In vitro binding affinity” value in test [1] came out at 3.6.

With FLPFGFILPV (also called IL13R2A-L) [IL13RA2-L (SEQ ID NO: 279)], the “In vitro binding affinity” value in test [1] came to 0.3.
